Measured values reported in IntAct's records for PubMed 18458160.

B1: KN motif and ankyrin repeat domain-containing protein 1 (Homo sapiens), Q14678-2 (parent)
chain: METRRRLEQERATMQMTPGEFRRPRLASFGGMGTTSSLPSFVGSGNHNPAKHQLQNGYQGNGDYGSYAPAAPTTSSMGSSIRHSPLSSGISTPVTNVSPMHLQHIREQMAIALKRLKELEEQVRTIPVLQVKISVLQEEKRQLVSQLKNQRAASQINVCGVRKRSYSAGNASQLEQLSRARRSGGELYIDYEEEEMETVEQSTQRIKEFRQLTADMQALEQKIQDSSCEASSELRENGECRSVAVGAEENMNDIVVYHRGSRSCKDAAVGTLVEMRNCGVSVTEAMLGVMTEADKEIELQQQTIESLKEKIYRLEVQLRETTHDREMTKLKQELQAAGSRKKVDKATMAQPLVFSKVVEAVVQTRDQMVGSHMDLVDTCVGTSVETNSVGISCQPECKNKVVGPELPMNWWIVKERVEMHDRCAGRSVEMCDKSVSVEVSVCETGSNTEESVNDLTLLKTNLNLKEVRSIGCGDCSVDVTVCSPKECASRGVNTEAVSQVEAAVMAVPRTADQDTSTDLEQVHQFTNTETATLIESCTNTCLSTLDKQTSTQTVETRTVAVGEGRVKDINSSTKTRSIGVGTLLSGHSGFDRPSAVKTKESGVGQININDNYLVGLKMRTIACGPPQLTVGLTASRRSVGVGDDPVGESLENPQPQAPLGMMTGLDHYIERIQKLLAEQQTLLAENYSELAEAFGEPHSQMGSLNSQLISTLSSINSVMKSASTEELRNPDFQKTSLGKITGNYLGYTCKCGGLQSGSPLSSQTSQPEQEVGTSEGKPISSLDAFPTQEGTLSPVNLTDDQIAAGLYACTNNESTLKSIMKKKDGNKDSNGAKKNLQFVGINGGYETTSSDDSSSDESSSSESDDECDVIEYPLEEEEEEEDEDTRGMAEGHHAVNIEGLKSARVEDEMQVQECEPEKVEIRERYELSEKMLSACNLLKNTINDPKALTSKDMRFCLNTLQHEWFRVSSQKSAIPAMVGDYIAAFEAISPDVLRYVINLADGNGNTALHYSVSHSNFEIVKLLLDADVCNVDHQNKAGYTPIMLAALAAVEAEKDMRIVEELFGCGDVNAKASQAGQTALMLAVSHGRIDMVKGLLACGADVNIQDDEGSTALMCASEHGHVEIVKLLLAQPGCNGHLEDNDGSTALSIALEAGHKDIAVLLYAHVNFAKAQSPGTPRLGRKTSPGPTHRGSFD
partner: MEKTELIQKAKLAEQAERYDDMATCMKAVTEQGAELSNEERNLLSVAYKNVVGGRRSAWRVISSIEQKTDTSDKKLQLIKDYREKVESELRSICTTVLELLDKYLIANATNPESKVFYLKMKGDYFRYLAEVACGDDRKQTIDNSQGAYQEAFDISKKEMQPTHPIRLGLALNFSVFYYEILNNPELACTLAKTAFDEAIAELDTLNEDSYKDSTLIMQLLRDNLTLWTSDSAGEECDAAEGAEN
B2: KN motif and ankyrin repeat domain-containing protein 1 (Homo sapiens), Q14678-2 (parent)
chain: B1 chain
B3: KN motif and ankyrin repeat domain-containing protein 1 (Homo sapiens), Q14678-2 (parent)
chain: B1 chain
partner: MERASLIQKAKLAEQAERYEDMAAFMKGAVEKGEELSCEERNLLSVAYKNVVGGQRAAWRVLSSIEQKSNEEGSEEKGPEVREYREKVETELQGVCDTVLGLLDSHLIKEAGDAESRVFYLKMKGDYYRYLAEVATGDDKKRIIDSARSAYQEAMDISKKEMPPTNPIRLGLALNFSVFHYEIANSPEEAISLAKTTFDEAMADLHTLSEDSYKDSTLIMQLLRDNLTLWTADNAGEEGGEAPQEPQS
B4: KN motif and ankyrin repeat domain-containing protein 1 (Homo sapiens), Q14678-2 (parent)
chain: B1 chain
partner: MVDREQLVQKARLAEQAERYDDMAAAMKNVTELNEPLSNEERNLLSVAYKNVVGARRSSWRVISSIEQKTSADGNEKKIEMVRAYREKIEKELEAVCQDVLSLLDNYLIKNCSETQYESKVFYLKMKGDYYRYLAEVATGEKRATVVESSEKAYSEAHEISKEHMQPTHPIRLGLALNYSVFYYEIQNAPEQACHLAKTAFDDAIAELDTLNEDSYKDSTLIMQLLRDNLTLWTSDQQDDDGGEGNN
B5: KN motif and ankyrin repeat domain-containing protein 1 (Homo sapiens), Q14678-2 (parent)
chain: B1 chain
partner: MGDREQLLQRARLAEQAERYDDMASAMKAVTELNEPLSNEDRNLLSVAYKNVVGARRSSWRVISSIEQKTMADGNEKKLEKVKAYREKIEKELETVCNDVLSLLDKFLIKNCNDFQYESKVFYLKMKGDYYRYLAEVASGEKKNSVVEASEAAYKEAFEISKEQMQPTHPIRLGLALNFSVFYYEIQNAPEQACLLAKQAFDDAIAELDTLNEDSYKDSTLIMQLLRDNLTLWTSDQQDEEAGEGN

Variants of: B1
Conditions: with 1433t_human YWHAQ

effect of a mutation on the interaction	Variant
disrupting interaction	S167A

Variants of: B2
Conditions: with 1433z_human YWHAZ

effect of a mutation on the interaction	Variant
disrupting interaction	S167A

Variants of: B2
Conditions: with 1433e_human YWHAE

effect of a mutation on the interaction	Variant
disrupting interaction	S167A

Variants of: B2
Conditions: with 1433b_human YWHAB

effect of a mutation on the interaction	Variant
disrupting interaction	S167A

Variants of: B3
Conditions: with 1433s_human SFN

effect of a mutation on the interaction	Variant
disrupting interaction	S167A

Variants of: B4
Conditions: with 1433g_human YWHAG

effect of a mutation on the interaction	Variant
disrupting interaction	S167A

Variants of: B5
Conditions: with 1433f_human YWHAH

effect of a mutation on the interaction	Variant
disrupting interaction	S167A
